Consider 16 molecules from patent US20120178701A1.

B1: Ac-Arg-cyclo(hGlu-Dab-D-Phe-Arg-Trp-Dab)-NH2 (peptide)
peptide: RXXFRWX
modifications: N-acetyl; X2 = hGlu; X3 = Dab; D-Phe 4; X7 = Dab; side-chain lactam hGlu2-Dab7; C-terminal amide
B2: Ac-Arg-cyclo(Dab-Dab-D-Phe-Arg-Trp-hGlu)-NH2 (peptide)
peptide: RXXFRWX
modifications: N-acetyl; X2 = Dab; X3 = Dab; D-Phe 4; X7 = hGlu; side-chain lactam Dab2-hGlu7; C-terminal amide
B3: Ac-Arg-cyclo(hGlu-Dab-D-Phe-Arg-Trp-Dab)-OH (peptide)
peptide: RXXFRWX
modifications: N-acetyl; X2 = hGlu; X3 = Dab; D-Phe 4; X7 = Dab; side-chain lactam hGlu2-Dab7; C-terminal free acid (-OH)
B4: Ac-Arg-cyclo(Dab-Dab-D-Phe-Arg-Trp-hGlu)-OH (peptide)
peptide: RXXFRWX
modifications: N-acetyl; X2 = Dab; X3 = Dab; D-Phe 4; X7 = hGlu; side-chain lactam Dab2-hGlu7; C-terminal free acid (-OH)
B5: Ac-Arg-cyclo(Asp-Dap-D-Phe-Arg-Trp-Lys)-NH2 (peptide)
peptide: RDXFRWK
HELM: PEPTIDE1{[ac].R.D.[NC[C@H](N[*:1])C(=O)[*:2]].[dF].R.W.K.[am]}$PEPTIDE1,PEPTIDE1,3:R3-8:R3$$$V2.0
SMILES: CC(=O)N[C@@H](CCCNC(=N)N)C(=O)N[C@H]1CC(=O)NCCCC[C@@H](C(N)=O)NC(=O)[C@H](Cc2c[nH]c3ccccc23)NC(=O)[C@H](CCCNC(=N)N)NC(=O)[C@@H](Cc2ccccc2)NC(=O)[C@H](CN)NC1=O
B6: Ac-Arg-cyclo(Asp-Dab(Acetyl)-D-Phe-Arg-Trp-Lys)-NH2 (peptide)
peptide: RDXFRWK
HELM: PEPTIDE1{[ac].R.D.[Dab].[dF].R.W.K.[am]}|PEPTIDE2{[ac]}$PEPTIDE1,PEPTIDE2,4:R3-1:R2|PEPTIDE1,PEPTIDE1,3:R3-8:R3$$$V2.0
SMILES: CC(=O)NCC[C@@H]1NC(=O)[C@@H](NC(=O)[C@H](CCCNC(=N)N)NC(C)=O)CC(=O)NCCCC[C@@H](C(N)=O)NC(=O)[C@H](Cc2c[nH]c3ccccc23)NC(=O)[C@H](CCCNC(=N)N)NC(=O)[C@@H](Cc2ccccc2)NC1=O
B7: Ac-Arg-cyclo(Asp-Dab-D-Phe-Arg-Trp-Lys)-NH-cyclopropyl (peptide)
peptide: RDXFRWK
HELM: PEPTIDE1{[ac].R.D.[Dab].[dF].R.W.K.[C1CC1N[*:1]]}$PEPTIDE1,PEPTIDE1,3:R3-8:R3$$$V2.0
SMILES: CC(=O)N[C@@H](CCCNC(=N)N)C(=O)N[C@H]1CC(=O)NCCCC[C@@H](C(=O)NC2CC2)NC(=O)[C@H](Cc2c[nH]c3ccccc23)NC(=O)[C@H](CCCNC(=N)N)NC(=O)[C@@H](Cc2ccccc2)NC(=O)[C@H](CCN)NC1=O

In general, Ki refers to the equilibrium dissociation constant of an inhibitor or competing ligand from its target.

Bridge positions count the residues as written; N and C are the ends. Square brackets hold non-standard residues; d marks the D form. Primed or numbered codes have the meaning given here. * marks the point of attachment. Dap(betaPro) = diaminopropionic acid with a beta-prolyl group on the side-chain amine; Cyclopentylacetyl′ = not defined here; Cyclohexylacetyl = O=C(CC1CCCCC1)*; Orn = NCCC[C@H](N)C(=O)O; Dab = NCC[C@H](N)C(=O)O; Sar = CNCC(=O)O

Chain of human recombinant melanocortin-4 receptor (human) (P32245 whole entry): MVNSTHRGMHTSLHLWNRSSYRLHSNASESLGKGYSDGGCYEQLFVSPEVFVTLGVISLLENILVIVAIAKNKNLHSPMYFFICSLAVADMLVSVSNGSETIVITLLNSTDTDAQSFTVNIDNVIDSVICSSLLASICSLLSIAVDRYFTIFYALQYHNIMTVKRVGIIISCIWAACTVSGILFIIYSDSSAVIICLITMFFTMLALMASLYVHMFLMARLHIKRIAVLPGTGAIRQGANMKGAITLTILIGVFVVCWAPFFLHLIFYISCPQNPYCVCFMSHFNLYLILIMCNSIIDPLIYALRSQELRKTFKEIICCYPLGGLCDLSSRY

One test has as its target human recombinant melanocortin-4 receptor (human) (UniProt P32245). Put plainly: competitive inhibition of Eu-NDP-α-MSH (TRF), hMC4-R HEK-293 membranes.
Conditions: not given
As to B1, the Ki stood at 2 nM.
The same measure, in the same setting: to B2 belongs 4 nM.

The next test shares this target. Briefly: cell-based or functional assay.
Conditions: not given
As for B1, the EC50 (cAMP) was 0.06 nM and the intrinsic activity (cAMP; NDP-α-MSH = 100%) was 98%.
Taken in the same sequence, the figures for B2 were 0.065 nM and 96%.

Another test has the same target. Briefly: competitive inhibition of [I125]-NDP-α-MSH, hMC4-R HEK-293 membranes.
Conditions: not given
As for B3, the Ki is 45 nM.
Same read-out and setting: with B4 the figure was 35 nM.

The target in a further test is T1, human recombinant melanocortin-4 receptor (human), P32245. Briefly: competitive inhibition of Eu-NDP-α-MSH (TRF), hMC4-R HEK-293 membranes. The note with it: remark: other sources report otherwise.
T1 sequence (P32245 whole entry): as above
Turning to B5, the Ki worked out at 80 nM.
On the same count and under the same terms, with Ac-RD[Dap(betaPro)][dF]RWK-NH2 (lactam 2-7) [Ac-Arg-cyclo(Asp-Dap(betaPro)-D-Ph-Arg-Trp-Lys)-NH2] the figure was 145 nM.
In the case of Ac-RD[Dab](Gly)[dF]RWK-NH2 (lactam 2-7) [Ac-Arg-cyclo(Asp-Dab(Glycly)-D-Phe-Arg-Trp-Lys)-NH2], the Ki stood at 110 nM.
On the same count and under the same terms, to Ac-RD[Orn][dF]RWK-NH2 (lactam 2-7) [Ac-Arg-cyclo(Asp-Orn-D-Phe-Arg-Trp-Lys)-NH2] belongs 7 nM; to B6, 88 nM.

Another test concerns the target T1, human recombinant melanocortin-4 …. Briefly: competitive inhibition of [I125]-NDP-α-MSH, hMC4-R HEK-293 membranes. The note with it: remark: other sources report otherwise.
Take Ac-RD[Orn](Ac)[dF]RWK-NH2 (lactam 2-7) [Ac-Arg-cyclo(Asp-Orn(Acetyl)-D-Phe-Arg-Trp-Lys)-NH2]: the Ki stood at 573 nM.
On to Ac-RD[Sar][dF]RWK-NH2 (lactam 2-7) [Ac-Arg-cyclo(Asp-Sar-D-Phe-Arg-Trp-Lys)-NH2], for which the Ki turned out to be 15 nM.
In the case of Phenylacetyl-RD[Dab][dF]RWK-NH2 (lactam 2-7) [Phenylacetyl-Arg-cyclo(Asp-Dab-D-Phe-Arg-Trp-Lys)-NH2], the Ki was determined as 2 nM.
Still for that read-out and setting: with {Cyclopentylacetyl′}-RD[Dab][dF]RWK-NH2 (lactam 2-7) [Cyclopentylacetyl-Arg-cyclo(Asp-Dab-D-Phe-Arg-Trp-Lys)-NH2] the figure was 0.8 nM.
On the same count and under the same terms, with Cyclohexylacetyl-RD[Dab][dF]RWK-NH2 (lactam 2-7) [Cyclohexylacetyl-Arg-cyclo(Asp-Dab-D-Phe-Arg-Trp-Lys)-NH2] the figure was 1 nM.
On the same count and under the same terms, with B6 the figure was 33 nM.
With Cyclohexanoyl-RD[Dab][dF]RWK-NH2 (lactam 2-7) [Cyclohexanoyl-Arg-cyclo(Asp-Dab-D-Phe-Arg-Trp-Lys)-NH2], the Ki turned out to be 0.4 nM.
On the same count and under the same terms, to B7 belongs 3 nM.
